This is an account of results in patent US20100136018A1 (Ablynx, published 2010).

First the molecules themselves.
B1: 1D7 (VHH)
VHH: EVQLVESGGGLVQSGGSLRLSCAASGRAFNYYAMGWFRQAPGKERELVAVINWSGGTTSYADSVKGRFTISRSNAKNTVYLQMSSLKPEDTAVYYCAADSIYRTSKDYNYWGQGTQVTVSS
notes: Nanobody against pIgR
B2: 48D11 (VHH)
VHH: EVQLVESGGGLVQAGDSLTLSCVASGRTFSNYGMGWFRQAPGKEREFVASINWGDGNTYYANSVKDRFAISKDHAKNTVYLQMNSLKPEDTALYYCAAVSSNTEIFDTWGQGIQVTVSS
notes: Nanobody against FcgR1
B3: 49F4 (VHH)
VHH: EVQLVESGGGLVQAGDSLTLSCVASGRTFSANGMGWFRQAPGKEREFVASIAWGDGNTYYANSVKDRFAISKDHAKNTVYLQMNSLKPEDTALYYCAAVSSNSETFDTWGQGIQVTVSS
notes: Nanobody against FcgR1
B4: 49 E10 (VHH)
VHH: EVQLVESVGGLVQTGGSLRLSCVASGRTFVSGGMGWFRQAPGKEREFVAAIVWIGGRTYYADSVKGRFTISGDNAKSTVTLQMNSLKPEDTALYYCADGDLATGTYDYWGQGTQVTVSS
notes: Nanobody against FcgR1
B5: 4_g6 (VHH)
VHH: EVQLVESGGGLVQAGGSLRLSCAASGFTFDDYAIGWFRQAPGKEREGVSCISSRDGTTYYADSVKGRFTISSDNAKNTVYLQMNSLKPEDTAVYYCAADLVGSFPCPVAAYDYWGQGTQVTVSS
notes: Nanobody against pIgR
B6: 4_a7 (VHH)
VHH: EVQLVESGGGLVQAGGSLRLSCEDSGRTFGDYIMGWFRQAPGKERDFVAAISWTGDSTYYKYYSDSAKGRFTASRDNAKNTAYLQMNGLKPEDTAVYYCAARTFRIDYDPRTASTYNYWGQGIQVTVSS
notes: Nanobody against pIgR
B7: 4_h1 (VHH)
VHH: EVQLVKSGGGLVQAGDSLRLSCAASGRTSSSVTMGWFRQAPGKERDFVAAISWSGGSTYYADSVKGRFTISRDNAKNTVYLQMNSLKPEDTAVYYCAAVVPSDPIIYYTDYVDYDYWGQGTQVTVSS
notes: Nanobody against pIgR
B8: 1_g10 (VHH)
VHH: EVQLVESGGGLVQAGDSLRLSCAASGRTFSTYAMAWFRQAPGKDREFVAAISWSSDMTYYLDSVKGRFTISRDNAKNTVFLQMNSLKPEDTAVYYCASGAYYAGSSTSPYNYWGQGTQVTVSS
notes: Nanobody against pIgR
B9: 1B7 (VHH)
VHH: EVQLVESGGGLVQAGGSLRLSCAASGFTFDDYAIGWFRQAPGKEREWVSCISRSDGSTYYADSVKGRFTISSDNAKNTVYLQMNSLKPEDTAVYHCAADAIGSFPCPAGVYDYWGQGTQVTVSS
notes: Nanobody against pIgR
B10: 4G11 (VHH)
VHH: EVQLVESGGGLVQAGGSLRLSCAASGFTFDDYAIGWFRQAPGKEREGVSCISSRDGMTYYADSVKGRFTISSDNARNTVYLQMNSLKPEDTAVYYCAADLVGSFPCPVAAYDYWGQGTQVTVSS
notes: Nanobody against pIgR
B11: 1C2 (VHH)
VHH: EVQLVESGGGLAQPGGSLRLSCAASGFAFSSYWMYWVRQAPGKGLEWVSAISTGGGGTYYADSVKGRFTISRDNAKNTLYLQMNSLKPEDTARYYCARDEAPTFDYSGNYAYTGSDPNDYWGQGTQVTVSS
notes: Nanobody against pIgR
B12: 2_d2 (VHH)
VHH: EVQLVESGGGQVQAGGSLRLSCVASERTFSYYDLAARAWFRQAPGKERELVSASTWNGGYTYYVDSVKGRFTVSTDDAGDTMYLQMNSLEPEDTAVYYCAARRAYSSDLHDYRTFDYWGQGTQVTVSS
notes: Nanobody against pIgR
B13: 2_f3 (VHH)
VHH: EVQLVESGGGLVQAGGSLRLSCAASGRTFTIYTMGWFRQAPGKAREFISALRWSGGSTYTFYADSVKGRFTISRDNAKNTLYLQMNSLKSEDTAIYYCGMVDPRAPYMRPDSTDSYAYWGQGTQVTVSS
notes: Nanobody against pIgR
B14: 4 E9 (VHH)
VHH: EVQLVESGGGLVQAGGSLRLSCAASGSILSTNDMGWYRQAPGNQRELVARISRGSSTIYTESVKGRFTISRDNAKNTVYLQMNSLKPEDTAVYYCNADMLPSDLSHGYYYRDYWGQGTQVTVSS
notes: Nanobody against pIgR
B15: 1 E2 (VHH)
VHH: EVQLVESGGGLVQAGGSLRLSCVASGFILREYNMGWFRQAPGKEREIVAAIAWTGTNSYYVDSVKGRFTISRDDTKNTVYLQMNSLNPEDTGVYHCAAEGYVSNFPRSSADEYDYWGQGTQVTVSS
notes: Nanobody against pIgR
B16: 1C7 (VHH)
VHH: EVQLVESGGGLVQPGGSLRLSCAASGFAFSRYGMYWVRQAPGKGLEWVSTINSGGDYIIYADSVKGRFTISRDNAKNTLYLQMNSLKPEDTAVYYCAEGYRGSEWPPPAFTLQRADFASWGQGTQVTVSS
notes: Nanobody against pIgR
B17: 4C11 (VHH)
VHH: EVQLVESGGGLVQPGGSLRLSCAASGFTFSSYAMTWVRQGLGKGLEWVSIISGNGGSTSYADSVKGRFTISRDNAKNTLYLQMNSLKPEDTAVYYCAKWDGLGTLPGSQGTQVTVSS
notes: Nanobody against pIgR
B18: 4_e11 (VHH)
VHH: EVQLVESGGGLVQAGGSLRLSCAASGFTFDDYAIGWFRQAPGKEREGVSCINNSDGSTYYADSVKGRFTISSDNAKNTVYLQMNSLKPEDTAVYYCAADFVGGSYCLFPTYNYWGQGTQVTVSS
notes: Nanobody against pIgR
B19: 48D6 (VHH)
VHH: EVQLVESGGGLVQAGDSLTLSCVASGRTFSAYGMGWFRQAPGKEREFVASINWGGGNTYYANSVKDRFAISKDHAKNTVYLQMNSLKPEDTALYYCAAVSSNTEIFDTWGQGIQVTVSS
notes: Nanobody against FcgR1
B20: 49 E4 (VHH)
VHH: EVQLVESGGGLVQAGDSLTLSCVASGRTFNNYGMGWFRQAPGKEREFVASINWGNGKTYYANSVKDRFAISKDHAKNTVYLQMNSLKPEDTALYYCAAVSSNTETFDTWGQGIQVTVSS
notes: Nanobody against FcgR1
B21: 49F9 (VHH)
VHH: EVQLVESGGGLVQAGDSLTLSCVASGRTFNNYGMGWFRQAPGKEREFVASINWGNGKTYYANPVKDRFAISKDHAKNTVYLQMNSLKPEDTALYYCAAVSSNTETFDTWGQGIQVTVSS
notes: Nanobody against FcgR1
B22: 49D4 (VHH)
VHH: EVQLVESGGGLVQAGDSLTLSCVASGRRFSAYGMGWFRQAPGKEREFVASINWGDGNTYYANSVKDRFAISKDHAKNTVYLQMNSLKPEDTALYYCAAVSSNTEIFDTWGQGIQVTVSS
notes: Nanobody against FcgR1
B23: 49C5 (VHH)
VHH: EVQLVESGGGLVQAGGSLGLSCVASGRTFVSGGMGWFRQAPGKEREFVASIVWIGGRTYYADSVKGRFTISGDNAKSTVTLQMNSLKPEDTATYYCADGDLATGTYDYWGQGTQVTVSS
notes: Nanobody against FcgR1

The first experiment deals with T1, ectodomain of human pIgR (R&D Systems Cat #2717-PG) (human, UniProt P01833 19-638).
T1 construct: extracellular domain; Bought protein, immobilised on Maxisorp plates; also called pIgR ectodomain
T1 sequence (P01833 19-638): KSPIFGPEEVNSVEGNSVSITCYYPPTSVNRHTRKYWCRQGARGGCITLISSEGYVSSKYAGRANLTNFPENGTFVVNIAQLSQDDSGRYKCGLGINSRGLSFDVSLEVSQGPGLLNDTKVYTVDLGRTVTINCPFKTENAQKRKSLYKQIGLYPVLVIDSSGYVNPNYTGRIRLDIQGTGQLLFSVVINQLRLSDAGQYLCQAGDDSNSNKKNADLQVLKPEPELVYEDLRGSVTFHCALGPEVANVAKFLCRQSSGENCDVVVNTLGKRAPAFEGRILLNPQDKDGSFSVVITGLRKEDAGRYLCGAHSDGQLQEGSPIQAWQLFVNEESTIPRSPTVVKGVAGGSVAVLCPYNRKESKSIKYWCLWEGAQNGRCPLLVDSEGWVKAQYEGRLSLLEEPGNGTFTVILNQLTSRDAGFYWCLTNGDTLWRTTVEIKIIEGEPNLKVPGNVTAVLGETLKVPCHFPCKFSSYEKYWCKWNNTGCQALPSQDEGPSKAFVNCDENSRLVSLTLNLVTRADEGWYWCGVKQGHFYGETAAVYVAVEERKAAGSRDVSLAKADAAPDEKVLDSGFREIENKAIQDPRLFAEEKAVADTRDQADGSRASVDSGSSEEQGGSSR
Kind of experiment: competition ELISA, pIgR ectodomain coated at 5 ug/ml, 1 ug/ml IgA preincubated with purified Nanobody at 1600, 200, 25 and 3.3 nM, bound IgA detected with anti-IgA; blocked ligand IgA. For orientation: An ELISA detects its analyte on a solid surface through an enzyme-linked reagent.
Consider B1, for which the “IC50 (read off the curve)” value was approximately 80 nM.

In a further experiment the target is T2, ectodomain of human FcgR1 (R&D Systems Cat #1257-FC) (human, UniProt P12314 16-292).
T2 construct: extracellular domain; Bought protein, immobilised on Maxisorp plates; also called FcgR1 ectodomain; Fc gamma R1
T2 sequence (P12314 16-292): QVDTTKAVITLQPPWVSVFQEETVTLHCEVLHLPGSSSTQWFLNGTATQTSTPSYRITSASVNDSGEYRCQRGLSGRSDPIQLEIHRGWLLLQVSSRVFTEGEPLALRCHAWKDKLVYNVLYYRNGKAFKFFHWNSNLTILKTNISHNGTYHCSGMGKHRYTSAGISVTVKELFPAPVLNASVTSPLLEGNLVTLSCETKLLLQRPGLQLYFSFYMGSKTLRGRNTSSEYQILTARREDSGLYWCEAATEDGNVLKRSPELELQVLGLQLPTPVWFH
Kind of experiment: designation in the sequence table; clones from phage selection and ELISA screening on FcgR1 ectodomain.
Regarding B2, the binding result is on record as “binds”.

With B3, the binding result is recorded as “binds”. For the molecule B4, the binding result is on record as “binds”.

The target in a further experiment is T1, ectodomain of human pIgR (R&D Systems …). Kind of experiment: ELISA, pIgR ectodomain coated at 5 ug/ml, 10 ul periplasmic extract in 100 ul, anti-myc detection. As to the method:
In short, 5 ug/ml pIgR ectodomain was immobilized on Maxisorp microtiter plates (Nunc) and free binding sites were blocked using 4% Marvel in PBS. Next, 10 ul of periplasmic extract containing Nanobody of the different clones in 100 ul 2% Marvel PBST were allowed to bind to the immobilized antigen. […] Binding specificity was determined based on OD values compared to controls having received no Nanobody (low control).
Turning to B5, the binding result is “binds”. Same read-out and setting: to B6 belongs “binds”; to B7, “binds”. On the same count and under the same terms, next, B8: “binds”.

For a further experiment the target is unchanged. Kind of experiment: designation in the sequence table; clones from phage selection and ELISA screening on pIgR ectodomain.
With B9, the binding result is “binds”. Same read-out and setting: next, B10: “binds”. Still for that read-out and setting: to B11 belongs “binds”. Still for that read-out and setting: to B12 belongs “binds”. Turning to B13, the binding result was “binds”.

In the case of B14, the binding result was “binds”.

For the molecule B15, the binding result is “binds”. Still for that read-out and setting: next, B16: “binds”. The same measure, in the same setting: to B17 belongs “binds”. On to B18, for which the binding result was “binds”.

The target of a further experiment is T2, ectodomain of human FcgR1 (R&D Systems …). Kind of experiment: ELISA, FcgR1 ectodomain coated at 3 ug/ml, 10 ul periplasmic extract in 100 ul, anti-myc detection. The protocol: In short, 3 ug/ml FcgR1 ectodomain was immobilized on Maxisorp microtiter plates (Nunc) and free binding sites were blocked using 4% Marvel in PBS. Next, 10 ul of periplasmic extract containing Nanobody of the different clones in 100 ul 2% Marvel PBST were allowed to bind to the immobilized antigen. […] Binding specificity was determined based on OD values compared to controls having received no Nanobody (low control).
As for B19, the binding result was “binds”. B20: the binding result is listed as “binds”. With B21, the binding result is “binds”. On to B22, for which the binding result is listed as “binds”. With B23, the binding result is listed as “binds”.
